{"source": "paper PMC9056527", "about": "“Aptamer loaded superparamagnetic beads for selective capturing and gentle release of activated protein C”", "molecules": {"B1": {"name": "AD02-52 (antisense control) (ssDNA)", "DNA": "GCCTCCTAAGAGCCCCATCCGGGATAAGTCGAGTACAGCTCAGTTAGGAGGC", "modifications": "3'-HEG-amino"}, "B2": {"name": "HS02-52G (ssDNA)", "DNA": "GCCTCCTAACTGAGCTGTACTCGACTTATCCCGGATGGGGCTCTTAGGAGGC"}, "B3": {"name": "HS02-52G-NH2 (ssDNA)", "DNA": "B2 DNA", "modifications": "3'-HEG-amino"}}, "key": {"human α-thrombin (human)": {"biological_target": "human α-thrombin (human) (UniProt P00734)"}, "[1]": {"biological_target": "T1, activated protein C (APC) (UniProt P04070;P04070 43-197;212-461)", "T1 sequence (P04070 43-197, chain 1 of 2)": "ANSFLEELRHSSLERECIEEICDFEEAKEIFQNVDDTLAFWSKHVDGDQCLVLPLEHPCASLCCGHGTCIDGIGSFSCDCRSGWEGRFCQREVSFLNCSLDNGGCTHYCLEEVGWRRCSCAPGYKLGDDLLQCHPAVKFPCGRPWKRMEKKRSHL", "T1 sequence (P04070 212-461, chain 2 of 2)": "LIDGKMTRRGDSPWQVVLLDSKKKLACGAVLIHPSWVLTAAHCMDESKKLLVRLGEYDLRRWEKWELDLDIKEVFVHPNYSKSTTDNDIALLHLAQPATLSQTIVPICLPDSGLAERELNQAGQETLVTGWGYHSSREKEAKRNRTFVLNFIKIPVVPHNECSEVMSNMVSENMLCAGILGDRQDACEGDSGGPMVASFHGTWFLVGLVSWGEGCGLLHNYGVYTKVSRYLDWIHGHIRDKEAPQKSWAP", "experiment": "pull-down (aptamer-loaded magnetic beads); Ca2+ binding buffer; 10 µg APC; Binding buffer with Ca2+ (composition not in material); elution buffer 10 mM Tris-HCl, 144 mM NaCl, pH 7.4, 5 mM EDTA; bead capture at RT, 30 min", "conditions": "protein: commercial; copies: 1;1"}, "[2]": {"biological_target": "T1, activated protein C (APC)", "experiment": "BLI; dissociation in binding buffer (Ca2+); 500 nM APC; Binding buffer with Ca2+ (composition not in material); elution buffer 10 mM Tris-HCl, 144 mM NaCl, pH 7.4, 5 mM EDTA; bead capture at RT, 30 min", "conditions": "protein: commercial; copies: 1;1; label: 3'-TEG-biotin"}, "[3]": {"biological_target": "T1, activated protein C (APC)", "experiment": "pull-down (aptamer-loaded magnetic beads); Ca2+ binding buffer; eluted with 5 mM EDTA; Binding buffer with Ca2+ (composition not in material); elution buffer 10 mM Tris-HCl, 144 mM NaCl, pH 7.4, 5 mM EDTA; bead capture at RT, 30 min", "conditions": "protein: commercial; copies: 1;1"}, "[4]": {"biological_target": "protein C (PC, zymogen, Ceprotin) (UniProt P04070;P04070 43-197;200-461)", "sequence (P04070 43-197, chain 1 of 2)": "as the sequence (P04070 43-197, chain 1 of 2) above", "sequence (P04070 200-461, chain 2 of 2)": "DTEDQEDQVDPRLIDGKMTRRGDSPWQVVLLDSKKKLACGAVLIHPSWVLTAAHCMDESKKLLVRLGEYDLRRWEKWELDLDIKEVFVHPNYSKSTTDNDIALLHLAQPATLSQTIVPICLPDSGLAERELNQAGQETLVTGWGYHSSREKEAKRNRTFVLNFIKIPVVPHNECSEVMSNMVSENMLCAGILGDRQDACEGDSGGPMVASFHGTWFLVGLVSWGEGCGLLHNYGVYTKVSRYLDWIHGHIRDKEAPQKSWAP", "experiment": "pull-down (aptamer-loaded magnetic beads); PC activation mixture; PC in eluate below <0.2-0.24 µg/ml; Binding buffer with Ca2+ (composition not in material); elution buffer 10 mM Tris-HCl, 144 mM NaCl, pH 7.4, 5 mM EDTA; bead capture at RT, 30 min", "conditions": "protein: commercial; copies: 1;1"}}}
{"molecule": "recombinant hirudin (Refludan, Bayer Health Care) (natural protein)", "values": [{"measurement": "IC50 of hirudin for thrombin-catalysed hydrolysis of the fluorogenic substrate Boc-Asp(OBzl)-Pro-Arg-AMC; 2.5 µg/ml (68 nM) thrombin, hirudin 14 nM to 14 µM, 30 min in activation buffer", "setting": "human α-thrombin (human)", "value": 170, "unit": "nM"}, {"measurement": "IC50 of hirudin for thrombin-catalysed hydrolysis of the fluorogenic substrate Boc-Asp(OBzl)-Pro-Arg-AMC; 12.5 µg/ml (341 nM) thrombin, hirudin 14 nM to 14 µM, 30 min in activation buffer", "setting": "human α-thrombin (human)", "value": 1960, "unit": "nM"}, {"measurement": "IC50 of hirudin for thrombin-catalysed hydrolysis of the fluorogenic substrate Boc-Asp(OBzl)-Pro-Arg-AMC; 20 µg/ml (545 nM) thrombin, hirudin 14 nM to 14 µM, 30 min in activation buffer", "setting": "human α-thrombin (human)", "value": 2260, "unit": "nM"}]}
{"molecule": "B1", "values": [{"measurement": "binding result", "setting": "[1]", "value": "no binding"}]}
{"molecule": "B2", "values": [{"measurement": "binding result", "setting": "[2]", "value": "binds"}]}
{"molecule": "B3", "values": [{"measurement": "binding result", "setting": "[3]", "value": "binds"}, {"measurement": "binding result", "setting": "[4]", "value": "no binding"}]}
